Experimental data taken from the RNAGym collection of RNA variant scans (doi:10.7554/elife.80360).

B1: Twister Ribozyme (parent)
chain: AACACUGCCAAUGCCGGUCCCAAGCCCGGAUAAAAGUGGAGGGGGCGG

Variants of: B1
Test: self-cleavage, relative activity (ratio to wild type); higher = more cleavage; co-transcriptional

Variant | self-cleavage
AAAACUGCCAAUGCCGGUCCCAAGCCCGGAUAAAAGUGGAGGGGUCGG [C3A G45U] | 0.152
AAAACUGCCAAUGCCGGUCCCAAGCCCGGAUAAGAGUGGAGGGGGCGG [C3A A34G] | 0.1
AACACUGCCAAUGCCGGCCCCAAGCUCGGAUAAAAGUGGAGGGGGCGG [U18C C26U] | 0.0772
AACACUGCCAAUGCCGGUCCCAAGCCCGGAUAAAAGGGGAGGGGGGGG [U37G C46G] | 0.79
AACACUGCCAAUGCCGGUCCCAAGGCCGGAUAAAAGUGGAGAGGGCGG [C25G G42A] | 0.118
UACACUGCCAAUGCCGGUCCCAAGCCCGGAUAAAAGUGGGGGGGGCGG [A1U A40G] | 0.074
AACACUGCCAAUGCCGGUCCCAAGCCCGGAUAAAAGUGGAUUGGGCGG [G41U G42U] | 0.125
AACACUGCCAAUGCCUGUCCCAAGCCCGGAUAAAAGUGGAGGGGGAGG [G16U C46A] | 0.662
AUCACUGCCAAUGCCGGUCCCAAGCCCGGAUAAGAGUGGAGGGGGCGG [A2U A34G] | 0.292
AACACUGCGAUUGCCGGUCCCAAGCCCGGAUAAAAGUGGAGGGGGCGG [C9G A11U] | 0.985
AACACUGCCAAUCCGGGUCCCAAGCCCGGAUAAAAGUGGAGGGGGCGG [G13C C15G] | 0.0922
AACACUGCCAGUGCCGGUCCCAAGCCCGGAUAAAAUUGGAGGGGGCGG [A11G G36U] | 0.431
CUCACUGCCAAUGCCGGUCCCAAGCCCGGAUAAAAGUGGAGGGGGCGG [A1C A2U] | 0.346
AACACUGCCAAUGCCGGACCCAAGCCCGGAUAAAAGUGGAGGGGGCAG [U18A G47A] | 0.201
AACACUGCCAAUGCCGGUUCCAAGCCCGGAUAAAAGUGGAGGUGGCGG [C19U G43U] | 1.02
AACACUGCCAAUACCGGUCCCAAGCCCGGAUAAAAGUGGAGGGGGUGG [G13A C46U] | 0.931
AACACUGCCAAUGCAGGUCCCACGCCCGGAUAAAAGUGGAGGGGGCGG [C15A A23C] | 0.0415
AACACUGCCACUGCCGGGCCCAAGCCCGGAUAAAAGUGGAGGGGGCGG [A11C U18G] | 0.0822
AACACUGCCACUGCCGGCCCCAAGCCCGGAUAAAAGUGGAGGGGGCGG [A11C U18C] | 0.154
AACACUGCCAAUGCCGGUCCCAAACCCGGAUUAAAGUGGAGGGGGCGG [G24A A32U] | 0.0696
AAUACUGCCAACGCCGGUCCCAAGCCCGGAUAAAAGUGGAGGGGGCGG [C3U U12C] | 0.39
AACACUGCCAGUGCCGGUCCCACGCCCGGAUAAAAGUGGAGGGGGCGG [A11G A23C] | 0.422
AACACUGCCAAUGCCGGUCCCAAGCCCGGAUAAAAGUGUAGGGUGCGG [G39U G44U] | 0.164
AAUACUGCCAAUCCCGGUCCCAAGCCCGGAUAAAAGUGGAGGGGGCGG [C3U G13C] | 0.168
AACACUGCCAGUGCCGGUCCCAAGCUCGGAUAAAAGUGGAGGGGGCGG [A11G C26U] | 0.466
AACACUGCCAAUGCCGGUCCCAAGCCCGGAUAGAAGUGGAGGGGGAGG [A33G C46A] | 0.894
AACACUGCCAAUGCCGGUCGCGAGCCCGGAUAAAAGUGGAGGGGGCGG [C20G A22G] | 0.0602

Variant | self-cleavage
AACACAGCCAAUGCCGGUCCCAAGCCCGGAUACAAGUGGAGGGGGCGG [U6A A33C] | 0.949
CACACUGCCAAUGCCGGUCCCAAGCUCGGAUAAAAGUGGAGGGGGCGG [A1C C26U] | 0.133
AACACUGCCAAUGCCGGUCCCUAGCCCGGAUAAAAGUGGAGGAGGCGG [A22U G43A] | 0.136
AACACUGCCAAGGCCGGUCCCUAGCCCGGAUAAAAGUGGAGGGGGCGG [U12G A22U] | 0.706
AACACUGCCAAUGCCGGACCCAAGCCCGGAUAAAAGUGUAGGGGGCGG [U18A G39U] | 0.144
AACACUGCCAAUGCCGGUGCCAAGCGCGGAUAAAAGUGGAGGGGGCGG [C19G C26G] | 0.0807
AACUCUGCCAAUGGCGGUCCCAAGCCCGGAUAAAAGUGGAGGGGGCGG [A4U C14G] | 0.0594
AACACUGCCAAUGCCGGUCCCAAGCCGGGAUAAAAGUGGGGGGGGCGG [C27G A40G] | 0.062
AACACGGCCAAUACCGGUCCCAAGCCCGGAUAAAAGUGGAGGGGGCGG [U6G G13A] | 0.086
AACACUGCCAAUGCCGGUCCCAAGCCCGGAUAAAAGUUGAGAGGGCGG [G38U G42A] | 0.129
AACACUGCCAAUGCCAGUCCCAAGCCCGGAUAAAAGUAGAGGGGGCGG [G16A G38A] | 0.867
AACACUGCCAAUGCCGGUCCCAAGCCCGGAUAAAAGUGGAGGGUGCCG [G44U G47C] | 0.523
AACACUGCCAAUGCCGAUCCCAACCCCGGAUAAAAGUGGAGGGGGCGG [G17A G24C] | 0.128
AACACUGCCAAUGCCGGUCCCAAGCCCGGAUGAAAAUGGAGGGGGCGG [A32G G36A] | 0.618
AAAACUGCCAAUGCCGGUCCCAAGCCCGGAUAAAAGUGAAGGGGGCGG [C3A G39A] | 0.0266
AACACUGCCAAUGCCCGGCCCAAGCCCGGAUAAAAGUGGAGGGGGCGG [G16C U18G] | 0.116
AACACUGCCAAUGCCGGUCCCAAGCCAGGAUAAAAGUGGAGGGGGCUG [C27A G47U] | 0.186
AUCACUGCCAAUGCCAGUCCCAAGCCCGGAUAAAAGUGGAGGGGGCGG [A2U G16A] | 0.256
AACACUGCCAAUGCCGGUCCCAAGCCCGGAUGAAAGUGGAGCGGGCGG [A32G G42C] | 0.38
AACACUGCCAAUGCCUGCCCCAAGCCCGGAUAAAAGUGGAGGGGGCGG [G16U U18C] | 0.351
AACACUGCCAAUGCAGGUCCCAAGCCCGGAUAAAAGUGGAGGUGGCGG [C15A G43U] | 0.258
AACACUGCCAAUGCCGGUCCCAAGCCCGCAUAAAAGUGGAGGGUGCGG [G29C G44U] | 0.777
AACACUGCCAAUGCCGGUCCUAAGCCUGGAUAAAAGUGGAGGGGGCGG [C21U C27U] | 0.104
AACACUGCCAAUGCCGUUCCCAAGCCCGGUUAAAAGUGGAGGGGGCGG [G17U A30U] | 0.485
AACACUGCCAAUGCCCGUCCCAAGCCCGGAUAAAUGUGGAGGGGGCGG [G16C A35U] | 0.577
AACACUGCCAAUGCCGGUCCCAAGCCCGGAUAAACGUGGAGGGGGCCG [A35C G47C] | 0.574
UACACUGCCAAUGCCGGUCCCAAGCCCGGUUAAAAGUGGAGGGGGCGG [A1U A30U] | 0.0367
